The pKd is −log10 of the Kd, conventionally taken in molar units.

The record followed here is publication PMC9482650, “Quantitative fragmentomics allow affinity mapping of interactomes” (Nature Communications, 2022).

Assay in all cases: holdup assay
Holding throughout (set-up): key: below the threshold = too weak to quantify, mostly under pKd 3.1 to 4
Settings in all cases: plain residues with an end cap or a label only (N-terminal biotin on a linker: ttds)

The target in test [1] is T1, USH1C_3, Q9Y6N9.
T1 sequence (Q9Y6N9 447-547, limits assumed, looked up): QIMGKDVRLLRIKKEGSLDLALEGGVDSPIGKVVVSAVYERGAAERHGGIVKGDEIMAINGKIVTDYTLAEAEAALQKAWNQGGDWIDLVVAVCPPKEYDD

In test [2] the target is T2, GRIP1_1, Q9Y3R0.
T2 sequence (Q9Y3R0 48-146, limits assumed, looked up): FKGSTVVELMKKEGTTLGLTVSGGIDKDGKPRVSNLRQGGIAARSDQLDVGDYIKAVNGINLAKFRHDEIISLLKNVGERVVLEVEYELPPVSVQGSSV

The target of test [3] is T3, PARD6B, Q9BYG5.
T3 sequence (Q9BYG5 152-260, limits assumed, looked up): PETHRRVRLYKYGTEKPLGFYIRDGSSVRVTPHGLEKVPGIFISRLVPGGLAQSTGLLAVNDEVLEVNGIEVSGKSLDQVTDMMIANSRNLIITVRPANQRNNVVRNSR

Test [4] concerns the target MAGIX, Q9H6Y5.
The target in test [5] is GRIP2_2, Q9C0E4.
GRIP2_2, Q9C0E4, sequence (Q9C0E4 137-245): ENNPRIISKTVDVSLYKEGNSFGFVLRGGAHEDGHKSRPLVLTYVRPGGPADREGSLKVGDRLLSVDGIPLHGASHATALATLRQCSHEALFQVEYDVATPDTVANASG
The target of test [6] is DLG2_1, Q15700.
Test [7] concerns the target T4, MAGI2_1, Q86UL8.
T4 sequence (Q86UL8 12-111, limits assumed, looked up): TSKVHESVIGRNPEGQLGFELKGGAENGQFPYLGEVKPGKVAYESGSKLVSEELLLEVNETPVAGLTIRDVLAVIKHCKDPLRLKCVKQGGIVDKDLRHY

In test [8] the target is T5, MLLT4, P55196.
T5 sequence (P55196 1002-1103, limits assumed, looked up): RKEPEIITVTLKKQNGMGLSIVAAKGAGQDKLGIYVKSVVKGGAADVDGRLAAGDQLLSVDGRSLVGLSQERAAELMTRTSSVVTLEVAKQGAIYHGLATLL

The target in test [9] is MAGI3_3, Q5TCQ9.
MAGI3_3, Q5TCQ9, sequence (Q5TCQ9 572-655): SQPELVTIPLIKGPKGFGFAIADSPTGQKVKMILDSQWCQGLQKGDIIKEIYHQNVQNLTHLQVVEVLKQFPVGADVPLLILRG
For test [10], the target named is PARD3_1, Q8TEW0.
PARD3_1, Q8TEW0, sequence (Q8TEW0 264-372): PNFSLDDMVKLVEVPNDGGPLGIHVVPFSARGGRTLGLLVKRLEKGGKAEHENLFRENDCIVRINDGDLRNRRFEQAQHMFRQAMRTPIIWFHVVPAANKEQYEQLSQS
Test [11] addresses T6, SHROOM4, Q9ULL8.
T6 sequence (Q9ULL8 5-102, limits assumed, looked up): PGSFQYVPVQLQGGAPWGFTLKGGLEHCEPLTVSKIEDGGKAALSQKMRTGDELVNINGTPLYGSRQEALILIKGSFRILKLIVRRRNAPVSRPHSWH

Test [12] concerns the target Inadl_7, Q8NI35.
Test [13] deals with T7, MPDZ_2, O75970.
T7 sequence (O75970 252-347, limits assumed, looked up): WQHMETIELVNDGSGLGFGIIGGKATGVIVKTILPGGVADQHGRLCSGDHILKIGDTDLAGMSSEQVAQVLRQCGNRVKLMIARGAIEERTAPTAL

Test [14] addresses T8, PDZD11, Q5EBL8.
T8 sequence (Q5EBL8 42-139, limits assumed, looked up): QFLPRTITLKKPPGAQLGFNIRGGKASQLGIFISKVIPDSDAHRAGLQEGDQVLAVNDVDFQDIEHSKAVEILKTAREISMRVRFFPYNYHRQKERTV

Test [15] has as its target MAGI1_5, Q96QZ7.
Test [16] has as its target T9, TJP3_1, O95049.
T9 sequence (O95049 6-103, limits assumed, looked up): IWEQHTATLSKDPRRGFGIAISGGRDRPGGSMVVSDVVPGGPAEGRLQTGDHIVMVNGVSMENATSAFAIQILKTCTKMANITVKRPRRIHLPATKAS

Test [17] addresses T10, SHROOM2, Q13796.
T10 sequence (Q13796 21-118, limits assumed, looked up): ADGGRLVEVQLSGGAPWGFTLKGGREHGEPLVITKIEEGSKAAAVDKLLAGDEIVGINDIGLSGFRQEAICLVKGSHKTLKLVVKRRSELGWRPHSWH

Test [18] has as its target T11, PTPN4, P29074.
T11 sequence (P29074 512-599, limits assumed, looked up): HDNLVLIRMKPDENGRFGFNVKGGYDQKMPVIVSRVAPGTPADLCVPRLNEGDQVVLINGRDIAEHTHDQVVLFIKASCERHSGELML

For test [19], the target named is MAST3, O60307.
MAST3, O60307, sequence (O60307 945-1048): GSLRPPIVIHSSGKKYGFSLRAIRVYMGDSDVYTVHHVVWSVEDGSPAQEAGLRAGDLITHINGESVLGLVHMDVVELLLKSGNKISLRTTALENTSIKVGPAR
The target in test [20] is T12, PDZD2_6, O15018.
T12 sequence (O15018 2745-2839, limits assumed, looked up): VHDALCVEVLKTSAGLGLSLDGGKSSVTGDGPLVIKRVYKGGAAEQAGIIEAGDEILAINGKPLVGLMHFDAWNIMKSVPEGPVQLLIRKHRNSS

Test [21] addresses MAGI3_5, Q5TCQ9.
Test [22] addresses T13, PDZRN3_2, Q9UPQ7.
T13 sequence (Q9UPQ7 414-513, limits assumed, looked up): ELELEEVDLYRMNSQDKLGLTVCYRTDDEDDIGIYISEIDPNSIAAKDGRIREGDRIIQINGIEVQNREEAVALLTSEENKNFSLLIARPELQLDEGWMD

The target in test [23] is T14, PREX2_2, Q70Z35.
T14 sequence (Q70Z35 672-764, limits assumed, looked up): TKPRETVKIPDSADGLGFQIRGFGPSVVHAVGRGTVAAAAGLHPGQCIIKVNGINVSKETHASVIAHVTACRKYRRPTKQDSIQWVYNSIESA

MAGIX, Q9H6Y5, sequence (Q9H6Y5 118-211): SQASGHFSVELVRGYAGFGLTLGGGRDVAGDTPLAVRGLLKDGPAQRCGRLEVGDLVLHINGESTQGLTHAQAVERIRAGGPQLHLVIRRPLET
MAGI1_5, Q96QZ7, sequence (Q96QZ7 986-1098): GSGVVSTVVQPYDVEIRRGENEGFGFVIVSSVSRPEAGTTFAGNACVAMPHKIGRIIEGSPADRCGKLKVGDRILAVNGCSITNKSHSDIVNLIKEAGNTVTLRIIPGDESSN
MAGI3_5, Q5TCQ9, sequence (Q5TCQ9 847-941): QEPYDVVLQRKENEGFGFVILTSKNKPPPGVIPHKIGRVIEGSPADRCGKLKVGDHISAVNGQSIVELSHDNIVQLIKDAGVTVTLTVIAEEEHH
Inadl_7, Q8NI35, sequence (Q8NI35 1219-1332): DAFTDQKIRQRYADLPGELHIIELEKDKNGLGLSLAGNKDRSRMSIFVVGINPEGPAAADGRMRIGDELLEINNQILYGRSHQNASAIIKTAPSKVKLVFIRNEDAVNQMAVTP

In the case of RRVRKLPSTTL [RPS6KA1, Q15418], the pKd result in test [1] was “below the threshold”; in test [2], “below the threshold”; in [3], “below the threshold”; in [4] it was “below the threshold”; in test [5] it was “below the threshold”; in test [6], 3.83. Moreover, the pKd result in test [7], in [8], in [9], in [10], in test [11] and in test [12] was “below the threshold” throughout. The pKd result is “below the threshold” in [13]; “below the threshold” in test [14]; “below the threshold” in test [15]; “below the threshold” in test [16]; 3.61 in [17]; “below the threshold” in test [18]. Further, the pKd entry in [19], in test [20], in test [21] and in [22] was “below the threshold” each time.

As to DEDQHTQITKV [PTEN, P60484], the pKd entry was “below the threshold” in [2]; 4.25 in [3]; “below the threshold” in test [4]; “below the threshold” in test [6]; “below the threshold” in test [7]; “below the threshold” in test [8]. Also, the pKd result in [9] was “below the threshold”; in test [10] it was “below the threshold”; in [11] it was “below the threshold”; in test [12], 3.65; in test [13] it was “below the threshold”; in test [14], “below the threshold”. The pKd in test [15] is 4.53; in test [23], “below the threshold”; in test [16], “below the threshold”; in [17] it was “below the threshold”; in [18] it was “below the threshold”; in [19], 3.59. Besides, the pKd is 3.56 in [20] and “below the threshold” in [21].

For TGDTLEKFVEGL [CBP, Q92793], the pKd result in [2] is “below the threshold”; in test [3] it was 4.58; in test [4], “below the threshold”; in test [6], “below the threshold”; in test [7], “below the threshold”; in test [8] it was “below the threshold”. Besides, the pKd result was “below the threshold” in test [9]; “below the threshold” in [10]; 3.86 in [11]; “below the threshold” in [12]; “below the threshold” in test [13]; “below the threshold” in [14]. The pKd in test [15] is 4.17; in [23], “below the threshold”; in test [16], “below the threshold”; in [17] it was 3.83; in test [18], “below the threshold”; in test [19] it was “below the threshold”. In addition, the values for the pKd in test [20] and in test [21] were 3.86 and “below the threshold”, respectively.

Take CLDTSRETDL [KCNA5, P22460]: the pKd result in [1], in test [2], in test [3], in test [4], in test [5] and in test [6] was “below the threshold” throughout. Besides, the pKd entry in test [7], in [8], in test [9], in [10], in test [11] and in test [12] was “below the threshold” throughout. Moreover, the pKd entry is “below the threshold” in test [13]; “below the threshold” in test [14]; “below the threshold” in test [15]; “below the threshold” in test [23]; “below the threshold” in [16]; 4.22 in test [17]. Besides, the pKd was 4.07 in [18]; “below the threshold” in test [19]; “below the threshold” in [20]; “below the threshold” in [21]; “below the threshold” in test [22].
